Results published in patent US20030104443A1, “AFAP sequences, polypeptides, antibodies and methods” (University of West Virginia, priority 2001, published 2003).

How the values were obtained:
[1] = tested on: actin filaments; assay: Confocal microscopy of rhodamine-phalloidin-labeled actin filaments; format: biochemical
Source text: (§1) Binding constants were derived from the sedimentation of rAFAP-110 by actin. Accordingly, rAFAP-110 in the pellet and supernatant correspond to the bound and free rAFAP-110, respectively. The sum of densities of rAFAP-110 bands in the supernatant and pellet corresponds to the total mass of rAFAP-110 in the sample. The data representing the bound rAFAP-110 as a function of free rAFAP-110 were fit by nonlinear least squares to both the Langmuir (B=BMAX/(1+Kd/F)) and […] 2 μM F-actin filaments and different concentrations of rAFAP-110 in 5 mM MgCl2, 1 mM EGTA, 2 mM ATP, and 50 mM KCl at 20,800×g for 30 min at 4° C. After the centrifugation, both supernatant and pellets were analyzed by SDS-PAGE gel. Confocal microscopy assays were performed as described (Ishikawa et al., 1998, J. Biol. Chem., 273:26991-26997). Briefly, 2 μM F-actin containing 10% rhodamine-phalloidin-labeled F-actin were mixed with different concentrations of rAFAP-110 or other purified recombinant proteins in 5 mM MgCl2, 1 mM EGTA, 2 mM ATP, and 50 mM KCl at RT for 30 min. After the incubation, the reactions were applied between glass slides and coverslips and observed under confocal microscopy (Zeiss, Oberkochen, Germany). Samples for negative staining were adsorbed to grids coated with nitrocellulose and stabilized with carbon (Ernest F. Fullam, Latham, N.Y.). Unbound protein was removed by successive washes with buffer and water before staining with 1% uranylacetate (Cooper and Pollard, 1982, Methods Enzymol., 85(PtB), 182-210; Pollard and Cooper, 1982, Methods Enzymol., 85(PtB), 211-233).
To further test AFAP-110's capability to cross-link actin filaments, we analyzed rhodamine-phalloidin-labeled actin filaments for cross-linking by confocal microscopy. In FIG. 9A, purified rAFAP-110 or rAFAP-110^Δcterm were incubated with rhodamine-phalloidin-labeled actin filaments. […] 1, actin filaments only; 2, rAFAP-110 with actin filaments; 3, rAFAP-110^Δcterm with actin filaments. FIG. 9B presents confocal microscopy images. Different concentrations of α-actinin (top two panels, low=0.0625 μM and high=1.25 μM) and rAFAP-110 (bottom two panels, low=0.106 μM and high=2.1 μM) were incubated with rhodamine-phalloidin-labeled actin filaments. […] Actin filaments labeled with rhodamine-phalloidin appeared uniformly fluorescent in the absence of an actin binding protein (FIG. 9A1). […] Electron microscopy was used to confirm rAFAP-110's ability to cross-link actin filaments.

[2] = tested on: actin filaments; assay: Low-speed cosedimentation assay (20,800×g), actin filament cross-linking; format: biochemical
Source text: as §1
Actin filaments are unable to efficiently pellet at 20,800×g unless cross-linked to form heavier particles (either isotropic networked or bundled actin filaments; Cooper and Pollard, 1982, supra; Pollard and Cooper, 1982, supra; Meyer et al., 1990, J. Cell. Biol. 110:2013-2024; Wachsstock et al., 1993, Biophys. J., 65: 205-214; Rybakova et al., 1996, J. Cell. Biol., 135:661-672). […] The purified recombinant proteins were incubated with actin filaments and then were centrifuged at 20,800×g. Both supernatants (S) and pellets (P) were applied to SDS-PAGE gel, followed by Coomassie staining. 1, rAFAP-110 with actin filaments; 2, rAFAP-110^Δcterm with actin filaments; 3, rAFAP-110 only; 4, rAFAP-110^Δcterm only; 5, actin filaments only. FIG. 8B is a graph of cross-linked actin filaments versus free rAFAP-110. rAFAP-110 at 0.05,0.11,0.21,0.43, 0.86, and 2.14 μM was incubated with the 2 μM concentration of G-actin polymerized into actin filaments. After the incubation, the reactions were centrifuged at 20,800×g. Both supernatants and pellets were applied to SDS-PAGE gel, followed by the Western blot analysis to detect rAFAP-110 and Coomassie blue staining to detect actin, respectively. The data of cross-linked actin filaments and free rAFA-110 were gathered by scanning densitometry of SDS-PAGE gel analysis.

[3] = tested on: F-actin; assay: Actin binding assay (high-speed copelleting, 150,000×g)
Protocol: G-actin was polymerized to F-actin at 5 mM Tris-HCl, pH 8.0, 0.2 mM CaCl2, 0.5 mM DTT, 5 mM MgCl2, and 2 mM ATP at room temperature (RT) for 1 h. Different concentrations of rAFAP-110 were incubated with 2 μM F-actin in 5 mM MgCl2, 1 mM EGTA, 2 mM ATP, 50 mM KCl at RT for 30 min. The reactions were centrifuged at 150,000×g for 1 h at 4° C., and then both pellets and supernatants were collected and analyzed by SDS-PAGE gel.
as §1
The purified rAFAP-110 was incubated with actin filaments. The negative staining image was taken at 16,000 magnification. Black arrows indicate rAFAP-110 aggregates; and white arrow indicates actin filaments. […] The electron micrographs indicate that rAFAP-110 binds to the sides of actin filaments, which was supported by the fact that one mole of actin in filaments bound up to 1.7 mol of rAFAP-110 (FIG. 7C). FIG. 7C is a graph of bound rAFAP-110 versus free rAFAP-110. rAFAP-110 at 0.18,0.29,0.70, 1.34,2.63,3.73,4.67, 5.11,5.34,5.48, and 5.66 μM was incubated with 2 μM concentration of G-actin polymerized into actin filaments and were then centrifuged at 150,000×g. Both supernatants (S) and pellets (P) were applied to SDS-PAGE gel, followed by Coomassie staining. Density of AFAP-110 determined by scanning densitometry was fit as described.

[4] = biological target: T1, recombinant PKCα (Homo sapiens, UniProt P17252); assay: In vitro PKC kinase assay; format: biochemical; conditions: 10 μg rAFAP-110, 0.5 μg PKCα, radiolabeled ATP; FIG. 10A
T1 construct: purchased CalBiochem
Protocol: PKC kinase assays were carried out according to Current Protocols in Molecular Biology (Carter, 1997). Briefly, 10 μg rAFAP-110 purified as mentioned above was incubated at 30° C. for 30 min with 0.5 μg recombinant PKCα in reaction buffer (20 mM Tris, pH 7.5, 5 mM MgCl2, 0.2 mM CaCl2, 20 μg/ml phosphatidylserine, and 2 μg/ml diolein) to which 1 μCi [γ-^32P]ATP was added. Reactions were analyzed by SDS-PAGE.

[5] = least-squares fit to Hill equation, 2 μM actin, FIG. 8B
[6] = least-squares fit to Hill equation, 2 μM F-actin, FIG. 7C
[7] = second experiment, Hill equation

B1: rAFAP-110: Recombinant AFAP-110 purified after production as a GST bacterial fusion protein, using the PreScission Protease system (protein, UniProt Q90738 1-729, looked up)
Actin filament-associated …: MEELIVELRLFLELLDHEYLTSTVREKKAVITNILLRIQSSKGFEIKEHVQKPEVANSLPAPPQMPLPEIPQQWLPPDNGPPPLPTSSLPEGYYEEAVPVSPGKAPEYITSNYDSDAMSSSYESYDEEEEDGKGKKMRHQWPSEEASMDLVKDAKICAFLLRKKRFGQWTKLLCVIKENKLLCYKSSKDQQPQMELLLNDCSITYIPKDSKKKKHELKISHQGADALVLAVQSKEQAEQWLKVIKDVCSNCTGTVDSDGPLSSSPVHKTELEKKLSSERPSSDGEGAVENGITTVCNGKEQVKRKKSSKTEAKGTVTKVTGKKITKIIGLGKKKPSTDEQTSSAEEDVPTCGYLNVLSNNRWRERWCRVKDNKLIFHKDRTDLKTHIVSIPLRGCEVIPGLDSKHPLTFRLLRNGQEVAVLEASSSEDMGRWIGMLLAETGSSTDPGALHYDYIDVEMTASVIQAAKQTFCFMNRRVISTNPYRGSTANGYACPSGMALHYDDVPCINGSFKGKKPPATANGITGKVRTLNSQPKKPESVSCVKRTASNAEQYKYGKNRVEAVAKRLQSKEEELLKRKEALRNRLAQLRKERKDLRAAIEVNAGRKTQVILEDKLKKLEEECKTKEAERVNLELELTEVKESLKKALAGGITLGLAIEPKSGTSSPQSPIFKHRTLENSPISSCDTSDTECSIPVNSAAALKRPPSSNNSPCRGHVLRKAKEWEMKNGT
confocal fluorescence pattern of actin filaments ([1]; FIG. 9A, rAFAP-110 at 1.3 μM): organized into a lacy pattern of swollen and interconnected fluorescent tubes | organization of actin filaments at low concentration ([1]; α-actinin 0.0625 μM, rAFAP-110 0.105 μM, FIG. 9B): did not change the organization of actin filaments | organization of actin filaments at high concentration ([1]; α-actinin 1.25 μM, rAFAP-110 2.1 μM, FIG. 9B): caused some aggregation of actin filaments into large branched structures | actin cross-linked and sedimented at saturation ([2]; 1.63 μM/2.0 μM total actin): 81.5% | EC50 ([2]; 2 μM actin, FIG. 8B, read-out: half maximal cross-linking): 260 nM | sedimentation of actin filaments at low speed ([2]; 20,800×g, FIG. 8A): efficiently sedimented | BMAX (cross-linked actin filaments) [2, 5]: 1.63 µM | n (Hill equation, cross-linking) [2, 5]: 1.7 | Kd ([2]; least-squares fit to Hill equation, 2 μM actin, FIG. 8B, read-out: Kd (cross-linked actin filaments versus free rAFAP-110)): 260 nM | direct binding to actin filaments ([3]; 150,000×g for 1 h, FIG. 7A): bind to actin filaments directly | rAFAP-110 bound per one mole of actin in filaments ([3]; FIG. 7C): up to 1.7 mol | BMAX [3, 6]: 4.2 µM | Kd [3, 6]: 290 nM | BMAX [3, 7]: 1.5 µM | Kd [3, 7]: 240 nM | phosphorylation by PKCα in vitro [4]: phosphorylates
